# Where no end group is shown, it is not given here.
# B1: SEQ ID NO 228 (peptide)
# chain: TLRHWGLQFNTRFGV
# notes: Second selection; clone from a hypothetical or unknown polypeptide
# B2: SEQ ID NO 12 (peptide)
# chain: MKWDTDNTLGTEISWENKLAEGLKLTLDTIFVHHVLHAPH
# notes: mRNA display clone from a known polypeptide
# B3: SEQ ID NO 6 (peptide)
# chain: GGESDTDPHFQDALMQLAKAVASAAAALVLKAKSVAQR
# notes: as for B2
# B4: Bcl-2 related protein BPR, clone Y75 (peptide)
# peptide: TGKEAILRRLVALLEEEAEVINQKLASDPALRSKLVRLSSDSFAHL
# notes: also called Bcl-2 related proline-rich protein BPR
# B5: clone x42 (cDNA FLJ23277, Clone HEP03322) (peptide)
# chain: NGNLFASFIADS
# notes: mRNA display clone from a hypothetical or unknown polypeptide
# B6: SEQ ID NO 33 (peptide)
# chain: ALSWIEMDTEMEMLLARFRRTPGDLHLDHSVHLCAHP
# notes: as for B5
# B7: proline/glutamine rich splicing factor cluster polypeptide (peptide)
# chain: RGLWVDRVLEEWGLEPRQ
# notes: Selected clone translated from the incorrect reading frame of the parent mRNA; not further characterized
# B8: Novel protein D, clone T25 (peptide)
# peptide: GTRISDMLKLIADTWQRNCCPA-{FLAG‑M2 epitope}
# modifications: cysteine pairing not given here; also: 35S-Met labelled in vitro translation product
# B9: SEQ ID NO 224 (peptide)
# chain: KYQQLFEDIRW
# notes: Second selection; clone from a known polypeptide
# B10: Talin (splice variant), clone X56 (peptide)
# peptide: GGESDTDPHFQDALMQLAKAVASAAAALVLKAKSVAQR-{FLAG‑M2 epitope}
# modifications: also: 35S-Met labelled in vitro translation product
# notes: fragment limits not in text; also called selected Talin fragment
# B11: SEQ ID NO 227 (peptide)
# chain: MGDVVGFIDELEGAVSDLHRAL
# notes: as for B1
# Tests used:
# [1] = target: T1, BH3 domain binding site on Bcl-XL (Homo sapiens, UniProt Q07817); assay: Competition assay with Bak BH3 domain peptide in the Bcl-XL binding assay; conditions: 20 μM Bak BH3 competitor (SEQ ID NO: 152); 100 μM for some polypeptides
# T1 construct: made in house; host or cells: E. coli BL21 (DE3) pLysS
# T1 sequence (Q07817 1-211): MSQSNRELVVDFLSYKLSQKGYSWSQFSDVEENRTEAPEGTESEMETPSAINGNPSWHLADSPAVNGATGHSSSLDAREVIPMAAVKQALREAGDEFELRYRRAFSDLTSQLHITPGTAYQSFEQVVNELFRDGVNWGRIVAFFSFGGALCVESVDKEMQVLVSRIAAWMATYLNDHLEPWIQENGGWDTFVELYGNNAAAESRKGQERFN
# Procedure: (§1) Only three of the selected proteins (Bim, Bak, and Bax) were previously known to contain a BH3 domain. In order to determine if the other proteins bound to the BH3 domain binding site on Bcl-XL, a competition assay was performed. The Bak BH3 domain peptide used as a positive control was prepared by chemical synthesis and used to compete with individual Bcl-XL-binding polypeptides in a Bcl-XL binding assay. […] At a fixed concentration of immobilized Bcl-XL, the Bak BH3 domain-containing peptide […] (SEQ ID NO: 152), also containing a FLAG-M2 epitope, was added at the indicated concentration along with a trace amount of a selected Talin fragment. After binding for 1 hour, the unbound material was removed and the bound protein was quantitated. The bound protein was assayed by scintillation counting, normalized to that bound in the absence of competitor, and plotted versus competitor concentration.
# A competition assay was performed for each of the selected Bcl-XL-binding polypeptides using 20 μM Bak BH3 competitor based on the titration shown in FIG. 6. Due to poor competition with the Bcl-XL-binding polypeptides having the lowest Kd values (as determined above) a second competition was performed for some of these polypeptides using 100 μM competitor (FIG. 3A).
# [2] = target: T2, Bcl-XL-GST fusion protein (Homo sapiens, UniProt Q07817); assay: Free purified polypeptide binding to Bcl-XL-GST fusion protein (additional selection, FIG. 9); conditions: purified free polypeptides
# T2 construct: made in house; host or cells: E. coli BL21 (DE3) pLysS
# T2 sequence (Q07817 1-211): as above
# Procedure: Detection of a polypeptide binding to a Bcl-XL-glutathione S-transferase (GST) fusion protein was carried out as follows. Twenty microliters of glutathione Sepharose 4B slurry (AP Biotech) was aliquoted to a microcentrifuge tube and washed with PBS. The Bcl-XL-GST fusion protein (60 μg), prepared as describe above, was added and allowed to bind to the Sepharose beads for 1 hr at 4° C. The beads were then re-washed in selection buffer (50 mM Tris-HCL pH 7.5, 150 mM KCl, 0.05% Triton X-100, 0.5 mg/ml BSA, and 0.1 mg/ml salmon sperm DNA). The Bcl-XL-GST beads were resuspended in 100 μl of selection buffer (approximately 11.5 μM Bcl-XL) and ^35S-labeled mRNA display construct or free peptide was added (approximately 10-60 nM) and incubated on a rotator for 1 hr at 4° C. The reaction was then transferred to a microcentrifuge column (BioRad) and unbound mRNA display constructs or free peptides were removed by a 10 sec spin at 1,000 rpm. The Sepharose beads were then washed three times with 500 μl of selection buffer. The extent of binding between the Bcl-XL-GST fusion protein and the mRNA display constructs or free peptides was determined by scintillation counting each fraction, including the recovered beads. […]
# [3] = target: T3, human Bcl-XL-GST fusion protein (human, UniProt P08515 1-218 = GST; Q07817 1-211); assay: second mRNA display selection on immobilized Bcl-XL-GST
# T3 construct: Made in E. coli, immobilized on glutathione Sepharose beads; whole entry named; also called Bcl-XL-glutathione S-transferase (GST) fusion protein; GST-BCL-XL
# T3 sequence (P08515 1-218, tags or fused parts left off): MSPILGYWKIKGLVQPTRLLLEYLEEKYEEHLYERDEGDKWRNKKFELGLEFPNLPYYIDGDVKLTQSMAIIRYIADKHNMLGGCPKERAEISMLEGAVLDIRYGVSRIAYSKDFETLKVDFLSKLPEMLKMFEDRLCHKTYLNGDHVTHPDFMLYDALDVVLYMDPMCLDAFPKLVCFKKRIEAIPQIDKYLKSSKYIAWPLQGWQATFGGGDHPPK
# [4] = target: T3, human Bcl-XL-GST fusion protein; assay: free peptide on immobilized Bcl-XL-GST with Bak BH3 competitor
# Procedure: as §1
# A competition assay was performed for each of the selected Bcl-XL-binding polypeptides using 20 μM Bak BH3 competitor based on the titration shown in FIG. 6.
# [5] = target: T3, human Bcl-XL-GST fusion protein; assay: 35S-labeled free peptide on Bcl-XL-GST beads, target concentration varied, scintillation counting; relative Kd
# Procedure: Detection of a polypeptide binding to a Bcl-XL-glutathione S-transferase (GST) fusion protein was carried out as follows. Twenty microliters of glutathione Sepharose 4B slurry (AP Biotech) was aliquoted to a microcentrifuge tube and washed with PBS. The Bcl-XL-GST fusion protein (60 μg), prepared as describe above, was added and allowed to bind to the Sepharose beads for 1 hr at 4° C. The beads were then re-washed in selection buffer (50 mM Tris-HCL pH 7.5, 150 mM KCl, 0.05% Triton X-100, 0.5 mg/ml BSA, and 0.1 mg/ml salmon sperm DNA). The Bcl-XL-GST beads were resuspended in 100 μl of selection buffer (approximately 11.5 μM Bcl-XL) and ³⁵S-labeled mRNA display construct or free peptide was added (approximately 10-60 nM) and incubated on a rotator for 1 hr at 4° C. The reaction was then transferred to a microcentrifuge column (BioRad) and unbound mRNA display constructs or free peptides were removed by a 10 sec spin at 1,000 rpm. The Sepharose beads were then washed three times with 500 μl of selection buffer. The extent of binding between the Bcl-XL-GST fusion protein and the mRNA display constructs or free peptides was determined by scintillation counting each fraction, including the recovered beads.
# Purified radioactively labeled protein from the individual clones was incubated with immobilized Bcl-XL-GST for one hour and, after washing, the amount bound was determined by scintillation counting. The binding at each concentration was normalized to that at the highest concentration and plotted versus concentration. FIG. 5 is a representational plot of the results of this binding assay. A selected Bak fragment ([…]; SEQ ID NO: 152), containing a FLAG-M2 epitope, was synthetically produced as a free protein and used in a binding assay in which the concentration of immobilized Bcl-XL-GST was varied from 11 nM to 28 μM. The amount of peptide bound to Bcl-XL was determined by scintillation counting and normalized to that bound at the highest concentration. Normalized binding was then plotted versus Bcl-XL concentration and fit to a binding curve using nonlinear regression. […] However, only binding curves that gave a high correlation coefficient ® value) were used to determine an affinity.
# [6] = target: T3, human Bcl-XL-GST fusion protein; assay: mRNA display selection on immobilized Bcl-XL-GST; cluster found among sequenced clones
Molecule,Kd [5] [nM],also measured
"w75: selected Bcl-XL-binding polypeptide, SEQ ID NO: 37 (RTLQPRLLQNQQQHLPALPIWFLLQWLRLHPL; listed as Homo sapiens)",–,"competition by Bak BH3 domain (BakBH3 effect), bound normalized to reaction without competitor [1]: not competed at all"
"SRP9: selected SRP9 polypeptide of the additional selection, purified free polypeptide (IGEEFSRAAEKLYLAV)",–,Binding to the Bcl-XL-GST fusion protein [2]: 0.65%
"t53: selected Bcl-XL-binding polypeptide, SEQ ID NO: 25 (LDPVKDVLILSALRRMLWAADDFLEDLPFEQIG; listed as Homo sapiens)",–,"competition by Bak BH3 domain (BakBH3 effect), bound normalized to reaction without competitor [1]: not competed at all"
"x42: selected polypeptide, SEQ ID NO: 35; cDNA FLJ23277, Clone HEP03322 (Table 1) (NGNLFASFIADS)",–,"competition by Bak BH3 domain (BakBH3 effect), bound normalized to reaction without competitor [1]: not competed at all"
B1,–,binding result [3]: binds
B2,–,binding result [4]: binds
B3,–,binding result [4]: binds
B4,420,–
"GTRQDRMFETMAIEIEQLLARLTGVNDKMAEYTNA [Golgi SNAP receptor complex member 1, clone V06]",467,–
"ATRQALNEISARHSGIQQLERSIRELHDIFTFL [Syntaxin 4A, clone U58]",640,–
B5,–,binding result [6]: binds
"ASMRQAEPADMRPEIWIAQELRRIGDEFNAYYARE (fragment limits not in text) [Bim, clone T44]",2,–
"AVQEDPVQREIHQDWANREYIEIITSSIKKIAD (also called HSCP300) [HSPC300, clone C68]",580,–
B6,–,binding result [4]: binds
B7,–,binding result [6]: binds
SRREEAWDALFRGI (Second selection) [SEQ ID NO 229],–,binding result [3]: binds
"MKWDTDNTLGTEISWENKLAEGLKLTLDTIFVHHVLHAPH-{FLAG‑M2 epitope} (also: 35S-Met labelled in vitro translation product) [Voltage dependent anion channel 3, clone W06]",1120,–
"IAQATKATIDKWNCIKLKIFYTSKKEAS-{FLAG‑M2 epitope} (also: 35S-Met labelled in vitro translation product) [Novel protein I, clone C21]",70,–
"FWLEERDFEAGVFELEAIVNSIKRS [Toll-like receptor 3, clone U15]",781,–
B8,1610,–
"KLSECLKRIGDELDSNMELQRMIAAVDTDSPR (peptide, UniProt Q07812 58-89, looked up) [Bax, clone C49]",760,–
"QRGMLYYQTEKYDLAIKDLKEALIQLRGNN (fragment limits not in text) [Neutrophil cytosolic factor 2, clone T95]",4.16,–
B9,–,binding result [3]: binds
B10,93,–
B11,–,binding result [3]: binds
"GQVGRQLAIIGDDINRRK [Bak, clone C32]",402,–
TLREIGDLYLTSILGRR (Second selection) [SEQ ID NO 230],–,binding result [3]: binds
"MFSDIYGIREIADGLCLEVEGKMVSRPE [Tumor protein HDCMB21P, clone V50]",690,–

# — patent US20030032157A1, “Polypeptides interactive with Bcl-XL” (priority 2001, published 2003)
